Test [1] deals with T1, Murine Serum Albumin (MSA) (murine, UniProt P07724 25-608). Briefly: SPR, MSA immobilised on CM5 chip, analyte injected at 3.125-50 nM. As for the experimental part: (§1) In the graphs of FIG. 4, the X axis represents time [s] and the Y axis represents Response Unit [RU].
(§2) Target binding analysis was performed on a Biacore T200 system (GE Healthcare, Stockholm, Sweden) by injecting analytes over a CM5 chip immobilized with Murine Serum Albumin (MSA), Human Serum Albumin (HSA) and Human Epidermal growth factor receptor 2 (HER2) to a response level of […] each. Experimental parameters have been described previously (Garousi 2019).
Background: Surface plasmon resonance follows binding to a sensor surface in real time, without labels.

The target of test [2] is T2, Human Serum Albumin (HSA) (human, UniProt P02768 25-609). Briefly: SPR, HSA immobilised on CM5 chip, analyte injected at 3.125-50 nM. As for the experimental part: as §1, §2
Test [3] has as its target T3, Human Epidermal growth factor receptor 2 (HER2), immobilised on a CM5 chip (human, UniProt P04626 23-652, limits assumed). The test is described as follows: SPR, HER2 immobilised on CM5 chip, analyte 3.125-50 nM with 10x excess HSA. As for the experimental part:
as §1, §2

Test [4] has as its target T4, HER2 on living HER2-expressing cells (SKOV-3, BT-474) (human, UniProt P04626 23-1255).
T4 construct: whole, on cells; also called HER2 receptors in cells; HER2 on living cells
The test is described as follows: LigandTracer, living SKOV-3 cells; KD1 (stronger of two interactions). As for the experimental part:
(§3) Cell-lines were purchased from American Type Culture Collection (ATCC, Manassas, Va.). […] The affinity of radiolabeled conjugates binding to living HER2-expressing SKOV-3 cells was determined using LigandTracer (Ridgeview Instruments AB) by an established method as described previously (Tolmachev 2014).

In test [5] the target is T4, HER2 on living HER2-expressing cells …. Briefly: LigandTracer, living SKOV-3 cells; KD2 (weaker of two interactions). As for the experimental part: as §3
Test [6] addresses T2, Human Serum Albumin (HSA). Briefly: SPR (Biacore T200), HSA immobilised on CM5 chip. On the procedure: as §2
Test [7] has as its target T3, Human Epidermal growth factor receptor …. The test is described as follows: SPR (Biacore T200), HER2 immobilised on CM5 chip. As for the experimental part: as §2
For test [8], the target named is T1, Murine Serum Albumin (MSA). Briefly: SPR (Biacore T200), MSA immobilised on CM5 chip. On the procedure: as §2
The target in test [9] is T3, Human Epidermal growth factor receptor …. The test is described as follows: SPR, successive injections without regeneration, on HER2; concentrations not given.

For 12 molecules, binding result and Kd results are on record in US20230107890A1 (HOBER BIOTECH, published 2023).

Groups on a side chain read outwards from the residue. No end group written: not given here. *: point of attachment. DOTA = O=C(O)CN1CCN(CC(=O)O)CCN(CC(=O)*)CCN(CC(=O)O)CC1

T2 sequence (P02768 25-609 limits assumed): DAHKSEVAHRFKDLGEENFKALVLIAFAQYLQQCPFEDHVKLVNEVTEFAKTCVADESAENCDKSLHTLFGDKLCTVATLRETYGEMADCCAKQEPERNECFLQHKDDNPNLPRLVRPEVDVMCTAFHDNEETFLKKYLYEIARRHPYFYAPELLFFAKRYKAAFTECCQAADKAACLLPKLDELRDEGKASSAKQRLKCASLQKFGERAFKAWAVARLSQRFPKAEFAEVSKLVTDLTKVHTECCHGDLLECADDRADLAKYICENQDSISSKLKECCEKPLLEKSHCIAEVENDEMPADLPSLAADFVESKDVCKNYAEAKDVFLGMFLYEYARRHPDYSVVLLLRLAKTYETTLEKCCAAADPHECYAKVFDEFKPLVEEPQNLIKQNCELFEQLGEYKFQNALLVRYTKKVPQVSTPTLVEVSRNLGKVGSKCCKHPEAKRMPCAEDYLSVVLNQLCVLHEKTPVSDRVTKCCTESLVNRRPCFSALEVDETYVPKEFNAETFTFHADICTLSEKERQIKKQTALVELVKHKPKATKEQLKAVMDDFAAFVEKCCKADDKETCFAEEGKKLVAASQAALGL

B1: MG-DEAVDANS-ADAPT6-GSSC (designed binder)
chain: MGDEAVDANSLAAAKETALYHLDRLGVADAYKDLIDKAKTVEGVKARYFEILHALPGSSC
notes: also called non-fused ADAPT6; unfused control
Consider B1, for which the binding result was “no binding (tested: 50 nM)” in test [1], “no binding (tested: 50 nM)” in test [2] and “binds” in test [3].

B2: MG-DEAVDANS-ADAPT6-GSSC-HPEM-125I (designed binder)
chain: MGDEAVDANSLAAAKETALYHLDRLGVADAYKDLIDKAKTVEGVKARYFEILHALPGSSC
modifications: C-terminal cysteine coupled to 125I-labelled ((4-hydroxyphenyl)ethyl)maleimide (HPEM)
notes: Radioiodinated form of the non-fused control
In general, Kd refers to a measure of binding affinity in units of concentration. A lower Kd goes with a tighter complex. In the case of B2, the Kd is 0.41 nM in [4] and 27 nM in test [5].

B3: MG-DEAVDANS-ABD035-(SSSG)3-ADAPT6-GSSC-HPEM-125I (designed binder)
chain: MGDEAVDANSLAEAKVLANRELDKYGVSDFYKRLINKAKTVEGVEALKLHILAALPSSSGSSSGSSSGLAAAKETALYHLDRLGVADAYKDLIDKAKTVEGVKARYFEILHALPGSSC
modifications: C-terminal cysteine coupled to 125I-labelled ((4-hydroxyphenyl)ethyl)maleimide (HPEM)
For the molecule B3, the Kd in [4] was 0.15 nM; in test [5], 28 nM.

B4: MG-DEAVDANS-ABD035-(SSSG)3-ADAPT6-GSSC (designed binder)
chain: MGDEAVDANSLAEAKVLANRELDKYGVSDFYKRLINKAKTVEGVEALKLHILAALPSSSGSSSGSSSGLAAAKETALYHLDRLGVADAYKDLIDKAKTVEGVKARYFEILHALPGSSC
notes: also called ABD035-ADAPT6
B4: the Kd worked out at 0.0521 nM in test [6], 5.2 nM in [7] and 1.83 nM in test [8].

B5: MG-DEAVDANS-ABD035-(SSSG)3-ADAPT6-GSSC-DOTA-177Lu (designed binder)
chain: MGDEAVDANSLAEAKVLANRELDKYGVSDFYKRLINKAKTVEGVEALKLHILAALPSSSGSSSGSSSGLAAAKETALYHLDRLGVADAYKDLIDKAKTVEGVKARYFEILHALPGSSC
modifications: C-terminal cysteine coupled to maleimide-DOTA chelating 177Lu
Consider B5, for which the Kd in test [4] stood at 0.432 nM; in test [5], 38 nM.

B6: MG-DEAVDANS-ADAPT6-(SSSG)3-ABD035-GSSC (designed binder)
chain: MGDEAVDANSLAAAKETALYHLDRLGVADAYKDLIDKAKTVEGVKARYFEILHALPSSSGSSSGSSSGLAEAKVLANRELDKYGVSDFYKRLINKAKTVEGVEALKLHILAALPGSSC
Consider B6, for which the values for the Kd in test [6], in test [7] and in test [8] were 0.0498 nM, 4.67 nM and 1.76 nM, respectively.

B7: MG-DEAVDANS-ADAPT6-(SSSG)3-ABD035-GSSC-DOTA-177Lu (designed binder)
chain: MGDEAVDANSLAAAKETALYHLDRLGVADAYKDLIDKAKTVEGVKARYFEILHALPSSSGSSSGSSSGLAEAKVLANRELDKYGVSDFYKRLINKAKTVEGVEALKLHILAALPGSSC
modifications: C-terminal cysteine coupled to maleimide-DOTA chelating 177Lu
notes: also called Inventive 1
B7: the Kd in test [4] turned out to be 0.485 nM; in test [5], 33 nM.

B8: MG-DEAVDANS-ADAPT6-(SSSG)3-ABD035-GSSC-HPEM-125I (designed binder)
chain: MGDEAVDANSLAAAKETALYHLDRLGVADAYKDLIDKAKTVEGVKARYFEILHALPSSSGSSSGSSSGLAEAKVLANRELDKYGVSDFYKRLINKAKTVEGVEALKLHILAALPGSSC
modifications: C-terminal cysteine coupled to 125I-labelled ((4-hydroxyphenyl)ethyl)maleimide (HPEM)
notes: also called Inventive 2
For B8, the Kd in test [4] turned out to be 0.6 nM; in [5], 36 nM.

B9: MG-DEAVDANS-ABD35-(SSSG)5-ADAPT6-GSSC (designed binder)
chain: MGDEAVDANSLAEAKVLANRELDKYGVSDFYKRLINKAKTVEGVEALKLHILAALPSSSGSSSGSSSGSSSGSSSGLAAAKETALYHLDRLGVADAYKDLIDKAKTVEGVKARYFEILHALPGSSC
notes: also called ABD035-(SSSG)5-ADAPT6
As to B9, the dissociation constant (Kd) was determined as 0.052 nM in test [6] and 4.32 nM in [7].

B10: MG-DEAVDANS-ADAPT6-GSSC-DOTA-177Lu (designed binder)
chain: MGDEAVDANSLAAAKETALYHLDRLGVADAYKDLIDKAKTVEGVKARYFEILHALPGSSC([maleimide-DOTA])
modifications: also: 177Lu chelated by DOTA
On to B10, for which the Kd was determined as 0.337 nM in test [4] and 41 nM in test [5].

B11: MG-DEAVDANS-ADAPT6-(SSSG)5-ABD35-GSSC (designed binder)
chain: MGDEAVDANSLAAAKETALYHLDRLGVADAYKDLIDKAKTVEGVKARYFEILHALPSSSGSSSGSSSGSSSGSSSGLAEAKVLANRELDKYGVSDFYKRLINKAKTVEGVEALKLHILAALPGSSC
notes: also called ADAPT6-(SSSG)5-ABD035
As to B11, the values for the Kd in test [6], in test [7] and in test [8] were 0.0538 nM, 4.45 nM and 1.8 nM, respectively.

B12: MGDEAVDANS-ADAPTNeg-(SSSG)3-ABD035-GSSC (designed binder)
chain: MGDEAVDANSLAEAKVLANRELDKYGVADAYKNLINNAKTVEGVKARIDEILAALPSSSGSSSGSSSGLAEAKVLANRELDKYGVSDFYKRLINKAKTVEGVEALKLHILAALPGSSC
With B12, the binding result in test [9] is given as “no binding”.
